Data on one substance can be found in patent US20240124553A1.

Assay in all cases: flow cytometry, transfected 293T cells
Background: A flow cytometer gives signals particle by particle.

For assay [1], the target named is CHIKV E2-6K-E1 envelope proteins (strain S27) with E2 L210A (Chikungunya virus strain S27) (UniProt Q8JUX5).
Assay [2] has as its target CHIKV E2-6K-E1 envelope proteins (strain S27) with E2 T212A (Chikungunya virus strain S27) (UniProt Q8JUX5).
The target in assay [3] is CHIKV E2-6K-E1 envelope proteins (strain S27) with E2 S182A (Chikungunya virus strain S27) (UniProt Q8JUX5).
Assay [4] concerns the target CHIKV E2-6K-E1 envelope proteins (strain S27) with E2 R198A (Chikungunya virus strain S27) (UniProt Q8JUX5).
The target in assay [5] is CHIKV E2-6K-E1 envelope proteins (strain S27) with E2 S206A (Chikungunya virus strain S27) (UniProt Q8JUX5).
The target of assay [6] is CHIKV E2-6K-E1 envelope proteins (strain S27) with E2 G205A (Chikungunya virus strain S27) (UniProt Q8JUX5).

As to “Mxra8-Fc (mouse Mxra8 extracellular domain fused to mouse IgG2b Fc) (Fc fusion)”, the Binding Reactivity (% WT) was found to be 70.1 % WT in assay [1]; 94.6 % WT in assay [2]; 70.9 % WT in assay [3]; 74 % WT in assay [4]; 52.2 % WT in assay [5]; 78.9 % WT in assay [6].
